Patent publication US20180155451A1 (published 2018)

T1: FcγRIIb (human, UniProt P31994 43-217)
T1 construct: extracellular domain; also called FcgRIIb; 2b
T1 sequence (looked up): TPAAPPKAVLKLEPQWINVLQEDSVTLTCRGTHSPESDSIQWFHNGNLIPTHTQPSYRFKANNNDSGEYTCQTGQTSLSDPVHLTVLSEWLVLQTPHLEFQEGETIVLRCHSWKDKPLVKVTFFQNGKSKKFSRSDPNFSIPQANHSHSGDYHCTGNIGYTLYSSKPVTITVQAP

B1: GpH7-A5/GpH7-B3 variant L328_12R/GpL16-k0 (antibody, human IgG1, kappa)
heavy 1: not shown
heavy 2: not shown
light: DIVMTQSPLSLPVTPGEPASISCQASESLVHSNRNTYLHWYLQKPGQSPQLLIYKVSNRFSGVPDRFSGSGSGTDFTLKISRVEAEDVGVYYCSQNTHVPPTFGQGTKVEIERTVAAPSVFIFPPSDEQLKSGTASVVCLLNNFYPREAKVQWKVDNALQSGNSQESVTEQDSKDSTYSLSSTLTLSKADYEKHKVYACEVTHQGLSSPVTKSFNRGEC
notes: He Ab: heterodimerized anti-glypican-3 IgG1, substitution in one H chain only; also called He Ab L328R
B2: GpH7-A5/GpH7-B3 variant L328_11K/GpL16-k0 (antibody, human IgG1, kappa)
heavy 1: not shown
heavy 2: not shown
light: B1 light
notes: He Ab: heterodimerized anti-glypican-3 IgG1, substitution in one H chain only; also called He Ab L328K
B3: GpH7-B3 variant Y300_01G/GpL16-k0 (antibody, human IgG1, kappa)
heavy: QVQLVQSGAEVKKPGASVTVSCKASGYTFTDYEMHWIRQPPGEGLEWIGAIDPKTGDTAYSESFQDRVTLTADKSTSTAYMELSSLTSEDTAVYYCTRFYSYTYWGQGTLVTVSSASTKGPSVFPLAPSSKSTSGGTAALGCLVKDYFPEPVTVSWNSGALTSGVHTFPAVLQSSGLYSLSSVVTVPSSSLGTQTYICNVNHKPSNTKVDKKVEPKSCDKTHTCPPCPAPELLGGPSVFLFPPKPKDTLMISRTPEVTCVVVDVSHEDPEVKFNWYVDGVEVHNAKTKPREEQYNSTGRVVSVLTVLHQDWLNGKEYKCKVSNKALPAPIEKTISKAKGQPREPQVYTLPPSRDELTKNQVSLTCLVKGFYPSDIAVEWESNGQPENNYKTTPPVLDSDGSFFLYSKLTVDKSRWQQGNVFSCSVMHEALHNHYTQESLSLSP
light: B1 light
notes: homodimerized IgG1; mutation in both H chains; also called Ho Ab
B4: GpH7-B3 variant T335_19Q/GpL16-k0 (antibody, human IgG1, kappa)
heavy: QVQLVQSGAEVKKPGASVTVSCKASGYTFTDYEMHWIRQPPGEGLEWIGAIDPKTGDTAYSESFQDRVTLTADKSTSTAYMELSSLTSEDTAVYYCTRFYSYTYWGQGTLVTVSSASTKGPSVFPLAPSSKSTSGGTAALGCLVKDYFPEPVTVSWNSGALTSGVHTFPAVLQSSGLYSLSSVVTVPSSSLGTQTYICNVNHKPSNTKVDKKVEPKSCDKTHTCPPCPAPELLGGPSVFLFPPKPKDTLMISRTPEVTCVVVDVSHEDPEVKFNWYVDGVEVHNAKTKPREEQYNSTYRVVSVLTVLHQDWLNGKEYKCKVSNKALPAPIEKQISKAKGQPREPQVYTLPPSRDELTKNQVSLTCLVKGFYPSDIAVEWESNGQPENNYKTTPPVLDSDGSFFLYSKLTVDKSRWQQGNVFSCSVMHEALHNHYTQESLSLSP
light: B1 light
notes: as for B3
B5: GpH7-B3 variant Y296_12R/GpL16-k0 (antibody, human IgG1, kappa)
heavy: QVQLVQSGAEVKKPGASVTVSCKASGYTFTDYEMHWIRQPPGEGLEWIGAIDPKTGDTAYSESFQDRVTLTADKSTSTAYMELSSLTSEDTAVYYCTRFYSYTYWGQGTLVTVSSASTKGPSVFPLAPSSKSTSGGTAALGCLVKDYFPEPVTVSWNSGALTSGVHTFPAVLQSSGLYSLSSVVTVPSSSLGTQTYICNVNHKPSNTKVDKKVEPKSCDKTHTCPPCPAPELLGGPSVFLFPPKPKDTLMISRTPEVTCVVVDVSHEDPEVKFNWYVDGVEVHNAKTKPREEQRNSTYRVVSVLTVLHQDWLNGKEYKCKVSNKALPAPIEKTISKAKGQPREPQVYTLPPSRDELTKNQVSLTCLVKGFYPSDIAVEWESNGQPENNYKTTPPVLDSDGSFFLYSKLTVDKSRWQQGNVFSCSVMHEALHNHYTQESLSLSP
light: B1 light
notes: as for B3
B6: GpH7-B3 variant Y296_10E/GpL16-k0 (antibody, human IgG1, kappa)
heavy: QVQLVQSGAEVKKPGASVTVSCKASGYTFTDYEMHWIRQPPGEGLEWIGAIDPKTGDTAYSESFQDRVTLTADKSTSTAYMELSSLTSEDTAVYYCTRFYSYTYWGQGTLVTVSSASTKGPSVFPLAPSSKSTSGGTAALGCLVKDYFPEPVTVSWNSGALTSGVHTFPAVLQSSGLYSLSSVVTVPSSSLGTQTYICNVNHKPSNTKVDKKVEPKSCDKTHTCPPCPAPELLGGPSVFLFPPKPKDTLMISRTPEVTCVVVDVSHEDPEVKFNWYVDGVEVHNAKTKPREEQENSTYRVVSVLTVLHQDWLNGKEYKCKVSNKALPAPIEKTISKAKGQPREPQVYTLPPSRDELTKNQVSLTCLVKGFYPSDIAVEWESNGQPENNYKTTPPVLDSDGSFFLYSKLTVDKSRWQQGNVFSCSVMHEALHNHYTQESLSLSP
light: B1 light
notes: as for B3
B7: GpH7-B3 variant T335_20W/GpL16-k0 (antibody, human IgG1, kappa)
heavy: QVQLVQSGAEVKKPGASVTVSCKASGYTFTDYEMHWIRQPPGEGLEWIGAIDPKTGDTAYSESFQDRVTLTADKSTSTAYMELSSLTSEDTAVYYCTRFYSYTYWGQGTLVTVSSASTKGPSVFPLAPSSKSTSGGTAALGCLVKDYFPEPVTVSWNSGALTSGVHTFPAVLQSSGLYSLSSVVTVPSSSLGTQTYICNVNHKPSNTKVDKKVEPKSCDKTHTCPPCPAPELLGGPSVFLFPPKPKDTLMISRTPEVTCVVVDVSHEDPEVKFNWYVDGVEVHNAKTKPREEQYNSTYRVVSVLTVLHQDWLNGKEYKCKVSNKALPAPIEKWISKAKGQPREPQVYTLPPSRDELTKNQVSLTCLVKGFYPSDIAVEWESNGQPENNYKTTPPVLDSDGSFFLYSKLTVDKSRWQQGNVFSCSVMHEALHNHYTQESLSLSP
light: B1 light
notes: as for B3
B8: GpH7-B3 variant Y296_16H/GpL16-k0 (antibody, human IgG1, kappa)
heavy: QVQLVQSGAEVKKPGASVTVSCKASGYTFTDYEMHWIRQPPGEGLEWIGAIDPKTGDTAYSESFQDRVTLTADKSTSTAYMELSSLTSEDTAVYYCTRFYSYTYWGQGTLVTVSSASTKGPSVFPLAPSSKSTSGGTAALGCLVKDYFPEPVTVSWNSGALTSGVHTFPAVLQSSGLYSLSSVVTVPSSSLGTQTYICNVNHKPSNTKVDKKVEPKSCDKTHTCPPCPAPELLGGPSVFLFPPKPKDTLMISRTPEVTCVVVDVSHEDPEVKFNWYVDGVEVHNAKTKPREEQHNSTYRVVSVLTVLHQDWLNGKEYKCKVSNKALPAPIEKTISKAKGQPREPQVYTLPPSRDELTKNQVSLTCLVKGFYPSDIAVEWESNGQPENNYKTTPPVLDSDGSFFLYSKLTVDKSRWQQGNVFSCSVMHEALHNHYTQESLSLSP
light: B1 light
notes: as for B3
B9: GpH7-B3 variant T335_16H/GpL16-k0 (antibody, human IgG1, kappa)
heavy: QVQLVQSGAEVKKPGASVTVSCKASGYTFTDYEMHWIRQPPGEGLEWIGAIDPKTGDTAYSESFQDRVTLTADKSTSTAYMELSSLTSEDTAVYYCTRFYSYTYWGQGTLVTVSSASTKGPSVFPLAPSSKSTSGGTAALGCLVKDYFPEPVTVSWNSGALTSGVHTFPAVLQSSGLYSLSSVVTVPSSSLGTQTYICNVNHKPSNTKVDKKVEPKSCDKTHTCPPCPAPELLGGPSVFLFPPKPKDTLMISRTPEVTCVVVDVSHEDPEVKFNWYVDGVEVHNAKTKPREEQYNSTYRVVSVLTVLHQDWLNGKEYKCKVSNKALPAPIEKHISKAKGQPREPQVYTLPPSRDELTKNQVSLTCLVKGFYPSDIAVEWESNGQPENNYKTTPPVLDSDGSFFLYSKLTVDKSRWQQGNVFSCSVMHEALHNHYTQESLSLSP
light: B1 light
notes: as for B3
B10: GpH7-B3 variant Y296_11K/GpL16-k0 (antibody, human IgG1, kappa)
heavy: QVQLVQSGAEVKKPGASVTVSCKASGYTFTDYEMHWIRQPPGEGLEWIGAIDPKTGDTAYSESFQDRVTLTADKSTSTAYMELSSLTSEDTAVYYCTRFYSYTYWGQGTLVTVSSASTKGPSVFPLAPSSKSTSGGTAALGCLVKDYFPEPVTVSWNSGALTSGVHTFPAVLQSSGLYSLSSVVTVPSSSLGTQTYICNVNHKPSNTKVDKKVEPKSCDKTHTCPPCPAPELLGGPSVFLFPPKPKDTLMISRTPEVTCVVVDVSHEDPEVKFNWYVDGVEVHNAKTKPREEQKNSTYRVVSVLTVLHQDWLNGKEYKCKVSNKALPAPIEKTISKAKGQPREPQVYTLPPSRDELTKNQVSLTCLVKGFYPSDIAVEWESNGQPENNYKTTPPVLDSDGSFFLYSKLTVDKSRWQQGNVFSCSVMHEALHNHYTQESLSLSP
light: B1 light
notes: as for B3
B11: GpH7-B3 variant Y296_13S/GpL16-k0 (antibody, human IgG1, kappa)
heavy: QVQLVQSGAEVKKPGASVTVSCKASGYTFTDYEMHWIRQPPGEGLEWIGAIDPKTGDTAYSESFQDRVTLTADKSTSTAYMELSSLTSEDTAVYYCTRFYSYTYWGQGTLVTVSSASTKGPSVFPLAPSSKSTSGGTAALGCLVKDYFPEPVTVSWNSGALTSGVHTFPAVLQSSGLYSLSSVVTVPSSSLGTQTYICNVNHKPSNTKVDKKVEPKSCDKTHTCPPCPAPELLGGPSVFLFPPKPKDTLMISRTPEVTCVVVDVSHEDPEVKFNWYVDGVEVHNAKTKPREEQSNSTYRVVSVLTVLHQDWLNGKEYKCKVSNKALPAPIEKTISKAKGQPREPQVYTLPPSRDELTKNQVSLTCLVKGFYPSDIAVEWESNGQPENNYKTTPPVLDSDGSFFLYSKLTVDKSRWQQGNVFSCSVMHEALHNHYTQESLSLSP
light: B1 light
notes: as for B3
B12: GpH7-B3 variant Y296_14T/GpL16-k0 (antibody, human IgG1, kappa)
heavy: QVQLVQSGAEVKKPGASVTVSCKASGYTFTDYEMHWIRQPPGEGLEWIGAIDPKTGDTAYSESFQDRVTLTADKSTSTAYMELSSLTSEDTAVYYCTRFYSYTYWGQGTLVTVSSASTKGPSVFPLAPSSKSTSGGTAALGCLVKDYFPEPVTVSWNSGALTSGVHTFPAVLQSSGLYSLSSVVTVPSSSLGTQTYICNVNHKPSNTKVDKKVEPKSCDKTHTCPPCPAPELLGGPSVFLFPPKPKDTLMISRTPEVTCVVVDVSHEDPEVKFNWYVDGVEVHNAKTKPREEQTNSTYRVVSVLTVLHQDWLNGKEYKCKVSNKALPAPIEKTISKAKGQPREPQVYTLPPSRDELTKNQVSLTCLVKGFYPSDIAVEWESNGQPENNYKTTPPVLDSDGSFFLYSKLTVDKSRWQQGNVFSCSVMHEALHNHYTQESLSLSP
light: B1 light
notes: as for B3
B13: GpH7-B3 variant Y296_06M/GpL16-k0 (antibody, human IgG1, kappa)
heavy: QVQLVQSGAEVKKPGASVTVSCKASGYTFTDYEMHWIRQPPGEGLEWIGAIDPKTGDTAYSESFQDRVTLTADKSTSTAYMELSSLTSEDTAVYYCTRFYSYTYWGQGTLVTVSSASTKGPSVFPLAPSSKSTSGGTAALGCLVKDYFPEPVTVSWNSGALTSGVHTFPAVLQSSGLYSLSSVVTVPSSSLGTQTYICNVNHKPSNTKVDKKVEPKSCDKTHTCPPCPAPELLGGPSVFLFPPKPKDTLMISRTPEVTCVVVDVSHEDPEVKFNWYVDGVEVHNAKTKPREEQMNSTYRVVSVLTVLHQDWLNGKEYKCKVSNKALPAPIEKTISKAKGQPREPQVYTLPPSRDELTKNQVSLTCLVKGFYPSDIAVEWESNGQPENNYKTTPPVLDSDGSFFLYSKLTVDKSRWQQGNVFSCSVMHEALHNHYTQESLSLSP
light: B1 light
notes: as for B3
B14: GpH7-B3 variant T335_18N/GpL16-k0 (antibody, human IgG1, kappa)
heavy: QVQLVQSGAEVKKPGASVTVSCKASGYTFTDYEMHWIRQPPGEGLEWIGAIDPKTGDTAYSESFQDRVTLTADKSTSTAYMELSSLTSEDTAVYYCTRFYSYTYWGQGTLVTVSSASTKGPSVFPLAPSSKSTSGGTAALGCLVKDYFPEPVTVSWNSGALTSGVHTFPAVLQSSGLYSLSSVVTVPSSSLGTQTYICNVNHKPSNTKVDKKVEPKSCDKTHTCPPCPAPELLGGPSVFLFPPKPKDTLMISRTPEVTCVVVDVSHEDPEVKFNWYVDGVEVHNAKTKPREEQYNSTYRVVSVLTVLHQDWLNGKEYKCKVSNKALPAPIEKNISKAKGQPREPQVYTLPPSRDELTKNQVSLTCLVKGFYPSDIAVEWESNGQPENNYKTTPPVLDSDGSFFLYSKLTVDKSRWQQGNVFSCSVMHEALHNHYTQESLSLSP
light: B1 light
notes: as for B3
B15: GpH7-A5/GpH7-B3 variant S324_14T/GpL16-k0 (antibody, human IgG1, kappa)
heavy 1: not shown
heavy 2: not shown
light: B1 light
notes: heterodimerized IgG1, one H chain mutated; also called He Ab
B16: GpH7-A5/GpH7-B3 variant Y300_07I/GpL16-k0 (antibody, human IgG1, kappa)
heavy 1: not shown
heavy 2: not shown
light: B1 light
notes: as for B15
B17: GpH7-A5/GpH7-B3 variant S324_18N/GpL16-k0 (antibody, human IgG1, kappa)
heavy 1: not shown
heavy 2: not shown
light: B1 light
notes: as for B15
B18: GpH7-A5/GpH7-B3 variant Y300_02A/GpL16-k0 (antibody, human IgG1, kappa)
heavy 1: not shown
heavy 2: not shown
light: B1 light
notes: as for B15
B19: GpH7-A5/GpH7-B3 variant Y300_16H/GpL16-k0 (antibody, human IgG1, kappa)
heavy 1: not shown
heavy 2: not shown
light: B1 light
notes: as for B15
B20: GpH7-A5/GpH7-B3 variant Y300_05P/GpL16-k0 (antibody, human IgG1, kappa)
heavy 1: not shown
heavy 2: not shown
light: B1 light
notes: as for B15
B21: GpH7-A5/GpH7-B3 variant Y300_14T/GpL16-k0 (antibody, human IgG1, kappa)
heavy 1: not shown
heavy 2: not shown
light: B1 light
notes: as for B15
B22: GpH7-A5/GpH7-B3 variant Y300_20W/GpL16-k0 (antibody, human IgG1, kappa)
heavy 1: not shown
heavy 2: not shown
light: B1 light
notes: as for B15
B23: GpH7-A5/GpH7-B3 variant Y300_09D/GpL16-k0 (antibody, human IgG1, kappa)
heavy 1: not shown
heavy 2: not shown
light: B1 light
notes: as for B15
B24: GpH7-A5/GpH7-B3 variant S324_16H/GpL16-k0 (antibody, human IgG1, kappa)
heavy 1: not shown
heavy 2: not shown
light: B1 light
notes: as for B15
B25: GpH7-A5/GpH7-B3 variant Y300_12R/GpL16-k0 (antibody, human IgG1, kappa)
heavy 1: not shown
heavy 2: not shown
light: B1 light
notes: as for B15
B26: GpH7-A5/GpH7-B3 variant Y300_06M/GpL16-k0 (antibody, human IgG1, kappa)
heavy 1: not shown
heavy 2: not shown
light: B1 light
notes: as for B15
B27: GpH7-A5/GpH7-B3 variant Y300_13S/GpL16-k0 (antibody, human IgG1, kappa)
heavy 1: not shown
heavy 2: not shown
light: B1 light
notes: as for B15
B28: GpH7-A5/GpH7-B3 variant S324_20W/GpL16-k0 (antibody, human IgG1, kappa)
heavy 1: not shown
heavy 2: not shown
light: B1 light
notes: as for B15
B29: GpH7-A5/GpH7-B3 variant Y300_08L/GpL16-k0 (antibody, human IgG1, kappa)
heavy 1: not shown
heavy 2: not shown
light: B1 light
notes: as for B15
B30: GpH7-A5/GpH7-B3 variant S324_19Q/GpL16-k0 (antibody, human IgG1, kappa)
heavy 1: not shown
heavy 2: not shown
light: B1 light
notes: as for B15
B31: GpH7-A5/GpH7-B3 variant Y300_11K/GpL16-k0 (antibody, human IgG1, kappa)
heavy 1: not shown
heavy 2: not shown
light: B1 light
notes: as for B15
B32: GpH7-A5/GpH7-B3 variant S324_15Y/GpL16-k0 (antibody, human IgG1, kappa)
heavy 1: not shown
heavy 2: not shown
light: B1 light
notes: as for B15
B33: GpH7-A5/GpH7-B3 variant Y300_03V/GpL16-k0 (antibody, human IgG1, kappa)
heavy 1: not shown
heavy 2: not shown
light: B1 light
notes: as for B15

Target: T2, FcγRIa extracellular domain with C-terminal His tag (human, UniProt P12314 16-292)
T2 construct: extracellular domain; Soluble receptor expressed in FreeStyle293 cells; analyte in Biacore; also called FcgRI; FcgRIa; not shown: His tag at the C terminus
Assay: SPR (Biacore), antibody captured on antigen peptide chip, FcγR as analyte; binding relative to GpH7-A5/GpH7-B3/GpL16-k0 = 100
Description: (§1) The heterodimerized antibodies He Abs in which one of the H chains was introduced with an alteration were assayed for their binding activities to each activating FcγR and inhibitory FcγR according to the method described in Example 4. […] The activating FcγRs in FIGS. 26, 27, 28, and 29 are FcγRIa, FcγRIIa (R), FcγRIIa (H), and FcγRIIIa, respectively.
(§2) Analysis of interaction between objective antibody and the FcγR was carried out using Biacore T100 (GE Healthcare). HBS-EP+ (GE Healthcare) was used as the running buffer, and the measurement temperature was set to 25° C. Chips produced by immobilizing the antigen peptide by the amine coupling method to a Series S Sencor Chip CM5 (GE Healthcare), or alternatively, chips produced by allowing preliminarily biotinylated antigen peptides to interact with and immobilize onto a Series S Sensor Chip SA (certified) (GE Healthcare) were used. Antibodies of interest were captured onto an antigen peptide-immobilized chip, and allowed to interact to each FcγR diluted with running buffer. To regenerate and repeatedly use the chip, the antibodies captured on the chip were washed off by reacting 10 mM glycine-HCl, pH 1.5.

T2 sequence (P12314 16-292): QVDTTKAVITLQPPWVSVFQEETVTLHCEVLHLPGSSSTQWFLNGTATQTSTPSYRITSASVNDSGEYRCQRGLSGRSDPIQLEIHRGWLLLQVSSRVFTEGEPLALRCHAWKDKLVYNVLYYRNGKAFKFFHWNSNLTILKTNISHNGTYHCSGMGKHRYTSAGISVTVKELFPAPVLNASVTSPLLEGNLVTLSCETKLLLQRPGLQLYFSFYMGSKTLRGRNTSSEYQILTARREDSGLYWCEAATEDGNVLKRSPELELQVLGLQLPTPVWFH

Binder	He/Con_1a (Ia binding)
B1	78.6 % of control (control = 100)
B2	79.2 % of control (control = 100)

Target: T2, FcγRIa extracellular domain with …
Assay: SPR (Biacore); He/Con_1a divided by He/Con_2b (FcγRIIb)
Description: as §1, §2

Binder	He_1a/2b (Ia/IIb)
B1	8.51
B2	10.5

Target: T3, FcγRIa (human, UniProt P12314 16-292)
T3 construct: extracellular domain; also called FcgRI; CD64; not shown: C-terminal His tag
Assay: SPR (Biacore), antibody captured on antigen peptide chip, FcγRIa as analyte; relative binding amount
Description: as §2
T3 sequence (P12314 16-292): as above

Binder	Ho/Con_1a
B3	109 % of control (GpH7-B3/GpL16-k0 = 100)
B4	105 % of control (GpH7-B3/GpL16-k0 = 100)
B5	103 % of control (GpH7-B3/GpL16-k0 = 100)
B6	106 % of control (GpH7-B3/GpL16-k0 = 100)
B7	104 % of control (GpH7-B3/GpL16-k0 = 100)
B8	105 % of control (GpH7-B3/GpL16-k0 = 100)
B9	104 % of control (GpH7-B3/GpL16-k0 = 100)
B10	102 % of control (GpH7-B3/GpL16-k0 = 100)
B11	105 % of control (GpH7-B3/GpL16-k0 = 100)
B12	105 % of control (GpH7-B3/GpL16-k0 = 100)
B13	104 % of control (GpH7-B3/GpL16-k0 = 100)
B14	102 % of control (GpH7-B3/GpL16-k0 = 100)

Target: T1, FcγRIIb
Assay: SPR (Biacore), relative to GpH7-A5/GpH7-B3/GpL16-k0 = 100

Binder	He/Con_2b (IIb binding)
B15	88.4 relative (control = 100)
B16	74.5 relative (control = 100)
B17	81.1 relative (control = 100)
B18	69.2 relative (control = 100)
B19	87 relative (control = 100)
B20	7.3 relative (control = 100)
B21	55.6 relative (control = 100)
B22	84.1 relative (control = 100)
B23	93.2 relative (control = 100)
B24	83.5 relative (control = 100)
B25	41.2 relative (control = 100)
B26	84.3 relative (control = 100)
B27	53.9 relative (control = 100)
B28	87.5 relative (control = 100)
B29	73.6 relative (control = 100)
B30	66.8 relative (control = 100)
B31	51.6 relative (control = 100)
B32	88.2 relative (control = 100)
B33	73.9 relative (control = 100)

Target: T4, FcγRIa (human, UniProt P12314 16-292)
T4 construct: extracellular domain; also called FcgRI; FcgRIa
Assay: as above
T4 sequence (P12314 16-292): as above

Binder	He/Con_1a (Ia binding)
B15	121 relative (control = 100)
B16	108 relative (control = 100)
B17	116 relative (control = 100)
B18	112 relative (control = 100)
B19	111 relative (control = 100)
B20	60.2 relative (control = 100)
B21	112 relative (control = 100)
B22	112 relative (control = 100)
B23	112 relative (control = 100)
B24	113 relative (control = 100)
B25	105 relative (control = 100)
B26	112 relative (control = 100)
B27	111 relative (control = 100)
B28	114 relative (control = 100)
B29	113 relative (control = 100)
B30	112 relative (control = 100)
B31	107 relative (control = 100)
B32	114 relative (control = 100)
B33	117 relative (control = 100)

Target: T4, FcγRIa
Assay: SPR (Biacore); He/Con_1a (FcgRIa) divided by He/Con_2b (FcgRIIb)
How it was run: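 Each FcγR was diluted in HBS-EP+ and injected at 25 °C over antibody held by an antigen-peptide sensor surface. Bound antibody was stripped with 10 mM glycine-HCl, pH 1.5, so chips could be reused.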

Binder	Ia/IIb He_1a/2b
B15	1.37
B16	1.45
B17	1.42
B18	1.62
B19	1.27
B20	8.22
B21	2.01
B22	1.34
B23	1.21
B24	1.35
B25	2.54
B26	1.33
B27	2.06
B28	1.31
B29	1.54
B30	1.68
B31	2.07
B32	1.29
B33	1.58
